Experimental data from PMC5041093, “Acidic Residues Control the Dimerization of the N-terminal Domain of Black Widow Spiders’ Major Ampullate Spidroin 1” (Scientific Reports, 2016).

B1: amino-terminal domain of Latrodectus hesperus major ampullate spidroin 1, wildtype (domain or fragment)
chain: QANTPWSSKANADAFINSFISAASNTGSFSQDQMEDMSLIGNTLMAAMDNMGGRITPSKLQALDMAFASSVAEIAASEGGDLGVTTNAIADALTSAFYQTTGVVNSRFISEIRSLIGMFAQASANDVYASAGS
notes: non-repetitive amino-terminal domain (NRN1) of major ampullate spidroin 1 (MaSp1), Latrodectus hesperus; also called wtNRN1_(L.h.); NRN1_(L.h.); source: E. coli BL21 (DE3), purified (nickel-NTA, SEC)

How the values were obtained:
[1] = target: NRN1_(L.h.) variant E114Q (Latrodectus hesperus); assay: NMR 15N relaxation (T1, T2; rotational correlation time); 15N-labelled E114Q, 22 mM sodium phosphate pH 7.2 without salt, 10% D2O; molecular weight estimated from the rotational correlation time
[2] = target: NRN1_(L.h.) variant E114Q (Latrodectus hesperus); assay: SEC-MALS; Superdex 200 10/300 GL, 20 mM sodium phosphate pH 7.2 without NaCl, 71.2 μM protein injected; monomer to dimer
[3] = target: the molecule itself; assay: SEC-MALS; Superdex 200 10/300 GL, 20 mM sodium phosphate pH 6.0 without NaCl, 71.2 μM protein injected; monomer to dimer

Molecule | stoichiometry N [1] | stoichiometry N [2] | stoichiometry N [3]
NRN1_(L.h.) variant E114Q (domain or fragment) | 2 | 2 | –
B1 | – | – | 2
